Laboratory results from patent US20030181369A1 (published 2003).

B1: HSV-tagged 16K derivative α4 (helix 4, amino acids 111-156) (other, not shown: small tags and cut ends)
chain: GIVGDAGVRGTAQQPRLFVGMILILIFAEVLGLYGLIVALILSTK
B2: HSV-tagged 16K derivative α2 (helix 2, amino acids 35-88) (other, not shown: small tags and cut ends)
chain: AKSGTGIAAMSVMRPEQIMKSIIPVVMAGIIAIYGLVVAVLIANSLNDDISLYK

Molecular target: T1, T7-epitope tagged bovine β1 integrin (bovine, UniProt P53712 21-798)
T1 construct: mature; Expressed in HEK293 cells and detected in lysates with anti-T7 antibody; also called T7-β1 integrin; T7 tagged β1; not shown: le
T1 sequence (P53712 21-798): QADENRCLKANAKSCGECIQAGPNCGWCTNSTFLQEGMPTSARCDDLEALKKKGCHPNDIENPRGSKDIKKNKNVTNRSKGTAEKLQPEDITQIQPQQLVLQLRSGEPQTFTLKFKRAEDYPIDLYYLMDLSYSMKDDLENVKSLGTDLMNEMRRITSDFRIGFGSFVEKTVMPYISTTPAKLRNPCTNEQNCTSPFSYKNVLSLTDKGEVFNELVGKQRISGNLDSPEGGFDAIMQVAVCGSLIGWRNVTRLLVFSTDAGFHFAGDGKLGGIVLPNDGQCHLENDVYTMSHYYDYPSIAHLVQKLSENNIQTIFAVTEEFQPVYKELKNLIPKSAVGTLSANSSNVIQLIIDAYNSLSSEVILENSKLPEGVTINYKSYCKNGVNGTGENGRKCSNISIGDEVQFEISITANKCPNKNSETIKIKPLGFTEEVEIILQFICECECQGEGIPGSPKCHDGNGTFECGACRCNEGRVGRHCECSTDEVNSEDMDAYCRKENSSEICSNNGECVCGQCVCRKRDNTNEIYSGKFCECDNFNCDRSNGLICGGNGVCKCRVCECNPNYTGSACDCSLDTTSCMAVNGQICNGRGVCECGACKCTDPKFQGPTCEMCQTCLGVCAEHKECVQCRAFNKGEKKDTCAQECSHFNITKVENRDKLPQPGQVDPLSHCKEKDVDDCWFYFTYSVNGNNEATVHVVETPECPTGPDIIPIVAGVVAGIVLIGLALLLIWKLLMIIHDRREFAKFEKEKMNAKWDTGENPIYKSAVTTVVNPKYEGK
Assay: co-immunoprecipitation with anti-HSV antibody, anti-T7 Western blot (FIG. 5B panel c)
Protocol: 16K derivatives were cotransfected with T7 tagged β1 integrin into HEK293 cells. Integrin expression was assessed by Western blot analysis of RIPA lysates probed with anti-T7 antibody (panel a), and glycosylation by GlcNAc-TV was assessed by incubating extracts with agarose-conjugated L-PHA and analysing recovered proteins with anti-T7 antibody (panel b). Proteins interacting with 16K or 16K mutants were isolated by immunoprecipitation using anti-HSV antibody followed by agarose conjugated protein A, and recovery of T7-β1 integrin monitored by Western blot analysis using anti-T7 antibody (panel c).
RIPA lysates made from HEK293 cells transiently transfected with pXJ41-T7-β1 were resolved on 8% SDS-PAGE, transferred to nitrocellulose, and probed with anti-T7 antibody. Alternatively, lysates were treated with endoglycosidase H (2 units) or glycopeptidase F and incubated at 37° C. overnight in the manufacturer's (Calbiochem) recommended buffers. Agarose conjugated L-PHA and ConA were used to isolate β1-6 branched and high mannose forms of β1 integrin respectively. Lysates made from cells co-transfected with HSV tagged 16K were treated with anti-HSV antibody and agarose-conjugated protein A and recovered complexes were analysed by Western blot as above. […]

Row | Binder | binding result
1 | B1 | no binding
2 | B2 | no binding
